Test [1] has as its target rHuman CD44/Fc Chimera, CF (R&D Systems Cat#3660-CD) (human) (UniProt P16070). As to the kind of experiment: ECL (MSD multi-spot), antigen spotted on plate; Fab […]; blank 428.
For test [2], the target named is rHuman ErbB2/Fc Chimera, CF (R&D Systems Cat#1129-ER) (human) (UniProt P04626). The test is described as above.
Test [3] deals with rHuman Erythropoietin R/Fc Chimera, CF (R&D Systems Cat#963-ER) (human) (UniProt P19235). The test is described as above.
For test [4], the target named is rHuman Notch-1/Fc Chimera, CF (R&D Systems Cat#3647-TK) (human) (UniProt P46531). Described as above.
The target of test [5] is rHuman P-Cadherin/Fc Chimera, CF (R&D Systems Cat#861-PC) (human) (UniProt P22223). Described as above.
In test [6] the target is rHuman CD44/Fc Chimera, CF (R&D Systems Cat#3660-CD) (human) (UniProt P16070). As to the kind of experiment: ECL (MSD multi-spot), antigen spotted on plate; Fab 8 nM; blank 1188.
The target of test [7] is rHuman ErbB2/Fc Chimera, CF (R&D Systems Cat#1129-ER) (human) (UniProt P04626). Described as above.
The target of test [8] is rHuman Erythropoietin R/Fc Chimera, CF (R&D Systems Cat#963-ER) (human) (UniProt P19235). The description is as above.
The target of test [9] is rHuman Notch-1/Fc Chimera, CF (R&D Systems Cat#3647-TK) (human) (UniProt P46531). Described as above.
Test [10] addresses rHuman P-Cadherin/Fc Chimera, CF (R&D Systems Cat#861-PC) (human) (UniProt P22223). The description is as above.
Test [11] addresses rHuman CD44/Fc Chimera, CF (R&D Systems Cat#3660-CD) (human) (UniProt P16070). As to the kind of experiment: ECL (MSD multi-spot), antigen spotted on plate; Fab 1.6 nM; blank 648.
In test [12] the target is rHuman ErbB2/Fc Chimera, CF (R&D Systems Cat#1129-ER) (human) (UniProt P04626). Described as above.
Test [13] deals with rHuman Erythropoietin R/Fc Chimera, CF (R&D Systems Cat#963-ER) (human) (UniProt P19235). The test is described as above.
In test [14] the target is rHuman Notch-1/Fc Chimera, CF (R&D Systems Cat#3647-TK) (human) (UniProt P46531). The test is described as above.
The target of test [15] is rHuman P-Cadherin/Fc Chimera, CF (R&D Systems Cat#861-PC) (human) (UniProt P22223). Described as above.
In test [16] the target is rHuman CD44/Fc Chimera, CF (R&D Systems Cat#3660-CD) (human) (UniProt P16070). Briefly: ECL (MSD multi-spot), antigen spotted on plate; Fab 40 nM; blank 1229.
Test [17] concerns the target rHuman ErbB2/Fc Chimera, CF (R&D Systems Cat#1129-ER) (human) (UniProt P04626). Described as above.
The target in test [18] is rHuman Erythropoietin R/Fc Chimera, CF (R&D Systems Cat#963-ER) (human) (UniProt P19235). Described as above.
Test [19] concerns the target rHuman Notch-1/Fc Chimera, CF (R&D Systems Cat#3647-TK) (human) (UniProt P46531). Described as above.
Test [20] has as its target rHuman P-Cadherin/Fc Chimera, CF (R&D Systems Cat#861-PC) (human) (UniProt P22223). The test is described as above.
Test [21] has as its target rHuman CD44/Fc Chimera, CF (R&D Systems Cat#3660-CD) (human) (UniProt P16070). As to the kind of experiment: ECL (MSD multi-spot), antigen spotted on plate; Fab 200 nM; blank 1659.
In test [22] the target is rHuman ErbB2/Fc Chimera, CF (R&D Systems Cat#1129-ER) (human) (UniProt P04626). The description is as above.
The target in test [23] is rHuman Erythropoietin R/Fc Chimera, CF (R&D Systems Cat#963-ER) (human) (UniProt P19235). The description is as above.
Test [24] addresses rHuman Notch-1/Fc Chimera, CF (R&D Systems Cat#3647-TK) (human) (UniProt P46531). Described as above.
Test [25] addresses rHuman P-Cadherin/Fc Chimera, CF (R&D Systems Cat#861-PC) (human) (UniProt P22223). The description is as above.
Test [26] deals with rHuman CD44/Fc Chimera, CF (R&D Systems Cat#3660-CD) (human) (UniProt P16070). As to the kind of experiment: ECL (MSD multi-spot), antigen spotted on plate; Fab 1000 nM; blank 2142.
For test [27], the target named is rHuman ErbB2/Fc Chimera, CF (R&D Systems Cat#1129-ER) (human) (UniProt P04626). The description is as above.
Test [28] concerns the target rHuman Erythropoietin R/Fc Chimera, CF (R&D Systems Cat#963-ER) (human) (UniProt P19235). Described as above.
The target in test [29] is rHuman Notch-1/Fc Chimera, CF (R&D Systems Cat#3647-TK) (human) (UniProt P46531). The description is as above.
For test [30], the target named is rHuman P-Cadherin/Fc Chimera, CF (R&D Systems Cat#861-PC) (human) (UniProt P22223). Described as above.
Test [31] has the same target. Briefly: ECL (MSD Multi-Spot) binding assay, antigen spotted on plate; Fab 6 nM; blank spot 191.
For test [32] the target is unchanged. As to the kind of experiment: ECL (MSD Multi-Spot) binding assay, antigen spotted on plate; Fab 17 nM; blank spot 143.
Test [33] shares this target. Briefly: ECL (MSD Multi-Spot) binding assay, antigen spotted on plate; Fab 51 nM; blank spot 335.
Test [34] shares this target. As to the kind of experiment: ECL (MSD Multi-Spot) binding assay, antigen spotted on plate; Fab 154 nM; blank spot 447.

Chain of rHuman Erythropoietin R/Fc Chimera, CF (R&D Systems Cat#963-ER) (human) (P19235 25-250, change not shown): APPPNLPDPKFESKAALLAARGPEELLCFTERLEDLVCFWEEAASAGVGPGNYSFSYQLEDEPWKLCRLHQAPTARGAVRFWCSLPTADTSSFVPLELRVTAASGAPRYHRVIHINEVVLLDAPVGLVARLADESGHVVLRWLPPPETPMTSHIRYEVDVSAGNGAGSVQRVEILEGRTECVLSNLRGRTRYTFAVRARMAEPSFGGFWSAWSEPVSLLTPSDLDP

For “Fab VH1-46_IGHD6-6*01_IGHJ1*01_S104A & L6_IGKJ1*01”, the ECL signal amounted to 684 in [1]; 766 in test [2]; 739 in test [3]; 739 in test [4]; 649 in test [5]; 1490 in test [6]. The ECL signal in test [7] amounted to 1900; in [8], 1980; in test [9], 2200; in test [10] it was 1920; in [11], 1020; in test [12], 1170. Also, the ECL signal in test [13] is 1120; in test [14], 1170; in [15], 1140; in test [16], 2680; in [17], 2230; in [18], 3510. Moreover, the ECL signal in [19] amounted to 3480; in test [20], 2600; in test [21] it was 3190; in test [22] it was 4040; in [23] it was 4000; in test [24] it was 5700. Besides, the ECL signal was 3990 in test [25]; 4730 in test [26]; 7420 in test [27]; 8290 in test [28]; 8060 in test [29]; 5630 in test [30].
As for “Fab VH5-51_IGHD5-18*01>3_IGHJ4*01 & V3-4_IGLJ1*01”, the ECL signal in [31] worked out at 358; in test [32], 542; in test [33], 854; in test [34], 1730.
